Data taken from PMC7406630, “A new ^68Ga-labeled somatostatin analog containing two iodo-amino acids for dual somatostatin receptor subtype 2 and 5 targeting” (EJNMMI Research, 2020).
Read-outs that look alike come from different tables or passages of the source. Values belong to the molecule of their own block, whether it stands above or below them.

Tests used:
[1] = format: physicochemical; settings: pH 7.4
Description: To a pre-saturated mixture of 500 μL n-octanol and 500 μL of phosphate-buffered saline (PBS) at pH 7.4, 10 μL of 1 μM of ^67Ga-labeled conjugates was added. The solutions were vortexed for 1 h to reach equilibrium and then centrifuged (3000 rpm) for 10 min. From each phase, 100 μL was removed and measured in a γ-counter. The partition coefficient was calculated as the average of the logarithmic values (n = 3) of the ratio between the radioactivity in the organic and the PBS phase.

in vivo [2] = settings: female, mouse, 100 pmol, total radioactivity
in vivo [3] = settings: female, mouse, 100 pmol, total radioactivity; remark: listed apart in the source
human SST2 [4] = molecular target: T1, human SST2 (Homo sapiens, UniProt P30874); assay: Competition binding assay on HEK-SST2 cells with ^125I-labeled SS-14; settings: read-out: SST2 IC50, nM (95% CI), ^125I-SS-14 radioligand, 3 to 5 sessions in duplicate
T1 construct: expressed in transfected cells; host or cells: HEK293 (HEK-SST2)
Description: (§1) Human Embryonic Kidney (HEK293) cells (a kind gift from Dr. A. Mühlethaler-Mottet, Pediatric Hematology-Oncology Unit, Lausanne University Hospital, Switzerland) were stably transfected with plasmids encoding the human SST2 and SST5 (HEK-SST2 and HEK-SST5) and cultivated as previously described. Non-transfected HEK cells were used as a negative control.
(§2) Binding assays were performed as described previously.

human SST5 [5] = molecular target: T2, human SST5 (Homo sapiens, UniProt P35346); assay: Competition binding assay on HEK-SST5 cells with ^125I-labeled SS-14; settings: read-out: SST5 IC50, nM (95% CI), ^125I-SS-14 radioligand, 3 to 5 sessions in duplicate
T2 construct: expressed in transfected cells; host or cells: HEK293 (HEK-SST5)
Description: as §1, §2

human SST2 [6] = molecular target: T1, human SST2; assay: cAMP accumulation experiments on HEK-SST2 cells (agonistic potency); format: cell-based; settings: for EC50: read-out: SST2 EC50, nM (95% CI), cAMP, HEK-SST2 cells, 3 to 4 sessions in duplicate
Description: (§3) Human Embryonic Kidney (HEK293) cells (a kind gift from Dr. A. Mühlethaler-Mottet, Pediatric Hematology-Oncology Unit, Lausanne University Hospital, Switzerland) were stably transfected with plasmids encoding the human SST2 and SST5 (HEK-SST2 and HEK-SST5) and cultivated as previously described [25]. Non-transfected HEK cells were used as a negative control.
(§4) cAMP accumulation experiments on HEK-SST2 and HEK-SST5 cells were performed with cAMP direct immunoassay kit (colorimetric, K371, BioVision) as described previously [25].

human SST5 [7] = molecular target: T2, human SST5; assay: cAMP accumulation experiments on HEK-SST5 cells (agonistic potency); format: cell-based; settings: read-out: SST5 EC50, nM (95% CI), 3 to 4 sessions in duplicate
Description: as §3, §4

SST5 [8] = system: SST5; design: method as in PMID 25918675; settings: cited from earlier work
human SST2 [9] = molecular target: T1, human SST2; design: method as in PMID 29523357; settings: read-out: SST2 IC50, nM (95% CI); HEK-SST2 cells, ^125I-SS-14 radioligand; published earlier but measured head-to-head; cited from earlier work
human SST5 [10] = molecular target: T2, human SST5; design: method as in PMID 29523357; settings: read-out: SST5 IC50, nM (95% CI); HEK-SST5 cells, ^125I-SS-14 radioligand; published earlier but measured head-to-head; cited from earlier work
human SST2 [11] = molecular target: T1, human SST2; design: method as in PMID 29523357; settings: read-out: SST2 EC50, nM (95% CI); cAMP, HEK-SST2 cells; cited from earlier work
human SST5 [12] = molecular target: T2, human SST5; design: method as in PMID 29523357; settings: read-out: SST5 EC50, nM (95% CI); cAMP, HEK-SST5 cells; cited from earlier work
SST2 = system: SST2; design: method as in PMID 10774879; settings: cited from earlier work
SST5 [13] = system: SST5; design: method as in PMID 10774879; settings: cited from earlier work
[14] = in vivo; cited from earlier work
[15] = athymic Nude-Foxn1^nu/Foxn1^+, Adrenal uptake
[16] = athymic Nude-Foxn1^nu/Foxn1^+, Blood uptake
[17] = athymic Nude-Foxn1^nu/Foxn1^+, Femur uptake
[18] = athymic Nude-Foxn1^nu/Foxn1^+, Heart uptake
[19] = athymic Nude-Foxn1^nu/Foxn1^+, Intestine uptake
[20] = athymic Nude-Foxn1^nu/Foxn1^+, Kidney uptake
[21] = athymic Nude-Foxn1^nu/Foxn1^+, Lung uptake
[22] = athymic Nude-Foxn1^nu/Foxn1^+, Muscle uptake
[23] = athymic Nude-Foxn1^nu/Foxn1^+, Pancreas uptake
[24] = athymic Nude-Foxn1^nu/Foxn1^+, Pituitary uptake
[25] = athymic Nude-Foxn1^nu/Foxn1^+, SST2 tumor uptake
[26] = athymic Nude-Foxn1^nu/Foxn1^+, SST5 tumor uptake
[27] = athymic Nude-Foxn1^nu/Foxn1^+, Stomach uptake
[28] = athymic Nude-Foxn1nu/Foxn1+, Spleen uptake
[29] = athymic Nude-Foxn1^nu/Foxn1^+, Liver uptake
[30] = athymic Nude-Foxn1nu/Foxn1+, Pancreas uptake

T1 sequence (P30874 whole entry): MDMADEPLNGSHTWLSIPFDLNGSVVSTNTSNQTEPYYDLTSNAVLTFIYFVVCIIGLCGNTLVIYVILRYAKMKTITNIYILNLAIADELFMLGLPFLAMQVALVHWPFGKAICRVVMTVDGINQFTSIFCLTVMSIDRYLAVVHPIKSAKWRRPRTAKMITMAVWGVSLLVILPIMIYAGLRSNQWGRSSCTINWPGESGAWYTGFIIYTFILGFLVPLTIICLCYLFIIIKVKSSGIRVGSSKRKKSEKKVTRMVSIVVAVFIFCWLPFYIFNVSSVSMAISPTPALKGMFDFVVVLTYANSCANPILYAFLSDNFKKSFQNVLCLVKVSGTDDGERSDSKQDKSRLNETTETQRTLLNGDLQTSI
T2 sequence (P35346 whole entry): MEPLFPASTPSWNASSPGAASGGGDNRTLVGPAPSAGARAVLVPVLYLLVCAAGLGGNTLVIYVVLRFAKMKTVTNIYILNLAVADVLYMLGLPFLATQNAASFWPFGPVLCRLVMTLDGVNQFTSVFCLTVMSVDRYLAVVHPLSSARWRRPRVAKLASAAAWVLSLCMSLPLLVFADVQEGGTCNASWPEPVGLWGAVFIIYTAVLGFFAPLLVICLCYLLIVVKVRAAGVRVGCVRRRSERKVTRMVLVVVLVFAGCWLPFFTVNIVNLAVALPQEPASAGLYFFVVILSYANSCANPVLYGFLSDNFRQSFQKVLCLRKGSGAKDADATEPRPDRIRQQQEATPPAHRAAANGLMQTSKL

Molecule: C[C@@H](O)[C@@H]1NC(=O)[C@H](CCCCN)NC(=O)[C@@H](Cc2c[nH]c3ccccc23)NC(=O)[C@H](Cc2cccc3ccccc23)NC(=O)[C@@H](NC(=O)[C@@H](Cc2ccccc2)NC(=O)CN2CCN(CC(=O)O)CCN(CC(=O)O)CCN(CC(=O)O)CC2)CSSC[C@@H](C(=O)N[C@H](CO)[C@@H](C)O)NC1=O [[^67Ga]Ga-DOTA-NOC, metal not drawn]
log D [1]: − 1.6 ± 0.1

Molecule: CC(C)[C@@H]1NC(=O)[C@H](CCCCN)NC(=O)[C@@H](Cc2c[nH]c3ccccc23)NC(=O)[C@H](Cc2ccc(O)c(I)c2)NC(=O)[C@@H](NC(=O)[C@@H](Cc2ccc(N)c(I)c2)NC(=O)CN2CCN(CC(=O)O)CCN(CC(=O)O)CCN(CC(=O)O)CC2)CSSC[C@@H](C(=O)N[C@H](C(N)=O)[C@@H](C)O)NC1=O [[^67Ga]Ga-DOTA-ST8950, metal not drawn]
log D [1]: − 1.0 ± 0.1

Molecule: C[C@@H](O)[C@H](NC(=O)[C@@H]1CSSC[C@H](NC(=O)[C@@H](Cc2ccccc2)NC(=O)CN2CCN(CC(=O)O)CCN(CC(=O)O)CCN(CC(=O)O)CC2)C(=O)N[C@@H](Cc2ccc(O)cc2)C(=O)N[C@H](Cc2c[nH]c3ccccc23)C(=O)N[C@@H](CCCCN)C(=O)N[C@@H]([C@@H](C)O)C(=O)N1)C(=O)O [[^67Ga]Ga-DOTA-TATE, metal not drawn]
log D [1]: − 3.0 ± 0.1

Molecule: C[C@@H](O)[C@@H]1NC(=O)[C@H](CCCCN)NC(=O)[C@@H](Cc2c[nH]c3ccccc23)NC(=O)[C@H](Cc2cccc3ccccc23)NC(=O)[C@@H](NC(=O)[C@@H](Cc2ccccc2)NC(=O)CN2CCN(CC(=O)O)CCN(CC(=O)O)CCN(CC(=O)O)CC2)CSSC[C@@H](C(=O)N[C@H](CO)[C@@H](C)O)NC1=O [[^68Ga]Ga-DOTA-NOC, [^68Ga][Ga-DOTA^0,1-Nal^3]-octreotide, metal not drawn, reference compound]
tissue uptake at 1 h (in vivo [2]; [15]): 4.6 ± 1 %ID/g
tissue uptake at 1 h (in vivo [2]; [16]): 1.1 ± 0.4 %ID/g
tissue uptake at 1 h (in vivo [2]; [17]): 1.7 ± 0.8 %ID/g
tissue uptake at 1 h (in vivo [2]; [18]): 0.7 ± 0.2 %ID/g
tissue uptake at 1 h (in vivo [2]; [19]): 3.3 ± 0.7 %ID/g
tissue uptake at 1 h (in vivo [2]; [20]): 9.8 ± 3.2 %ID/g
tissue uptake at 1 h (in vivo [2]; [21]): 3.3 ± 1.4 %ID/g
tissue uptake at 1 h (in vivo [2]; [22]): 0.5 ± 0.2 %ID/g
tissue uptake at 1 h (in vivo [2]; [23]): 16 ± 3 %ID/g
tissue uptake at 1 h (in vivo [2]; [24]): 8.2 ± 2.8 %ID/g
tissue uptake at 1 h (in vivo [2]; [25]): 30 ± 8 %ID/g
tissue uptake at 1 h (in vivo [2]; [26]): 12 ± 5 %ID/g
tissue uptake at 1 h (in vivo [2]; [27]): 12 ± 2 %ID/g
tissue uptake at 1 h (in vivo [2]; [28]): 0.8 ± 0.2 %ID/g

Molecule: CC(C)[C@@H]1NC(=O)[C@H](CCCCN)NC(=O)[C@@H](Cc2c[nH]c3ccccc23)NC(=O)[C@H](Cc2ccc(O)c(I)c2)NC(=O)[C@@H](NC(=O)[C@@H](Cc2ccc(N)c(I)c2)NC(=O)CN2CCN(CC(=O)O)CCN(CC(=O)O)CCN(CC(=O)O)CC2)CSSC[C@@H](C(=O)N[C@H](C(N)=O)[C@@H](C)O)NC1=O [[^68Ga]Ga-DOTA-ST8950, metal not drawn]
tissue uptake at 2 h (in vivo [2]; [15]): 4.3 ± 1 %ID/g
tissue uptake at 2 h (in vivo [2]; [16]): 0.8 ± 0.2 %ID/g
tissue uptake at 2 h (in vivo [2]; [17]): 2.4 ± 0.8 %ID/g
tissue uptake at 2 h (in vivo [2]; [18]): 0.8 ± 0.2 %ID/g
tissue uptake at 1 h (in vivo [2]; [19]): 2.4 ± 1.3 %ID/g
tissue uptake at 2 h (in vivo [2]; [19]): 2.7 ± 0.3 %ID/g
tissue uptake at 2 h (in vivo [2]; [20]): 14 ± 2 %ID/g
tissue uptake at 1 h (in vivo [2]; [29]): 6.4 ± 1.9 %ID/g
tissue uptake at 2 h (in vivo [2]; [29]): 7.3 ± 1.5 %ID/g
tissue uptake at 2 h (in vivo [2]; [21]): 3.5 ± 0.7 %ID/g
tissue uptake at 2 h (in vivo [2]; [22]): 0.6 ± 0.1 %ID/g
tissue uptake at 1 h (in vivo [2]; [23]): 8.5 ± 4.5 %ID/g
tissue uptake at 1 h (in vivo [2]; [24]): 8.5 ± 1.9 %ID/g
tissue uptake at 2 h (in vivo [2]; [24]): 7.8 ± 1.2 %ID/g
tissue uptake at 1 h (in vivo [2]; [25]): 26 ± 8 %ID/g
tissue uptake at 2 h (in vivo [2]; [25]): 32 ± 7 %ID/g
tissue uptake at 1 h (in vivo [2]; [26]): 15 ± 6 %ID/g
tissue uptake at 2 h (in vivo [2]; [26]): 14 ± 3 %ID/g
tissue uptake at 2 h (in vivo [2]; [27]): 8.4 ± 1.2 %ID/g
tissue uptake at 2 h (in vivo [2]; [30]): 8.6 ± 2.1 %ID/g
tissue uptake at 2 h (in vivo [2]; [28]): 1.5 ± 0.3 %ID/g
tissue uptake at 1 h (in vivo [3]; [19]): 2.5 ± 0.2 %ID/g
tissue uptake at 1 h (in vivo [3]; [29]): 6.2 ± 0.6 %ID/g
tissue uptake at 1 h (in vivo [3]; athymic Nude-Foxn1^nu/Foxn1^+, SST(-) tumor uptake): 1.4 ± 0.5 %ID/g
tissue uptake at 1 h (in vivo [3]; [30]): 7.4 ± 1.9 %ID/g

IC50 (human SST2 [4]): 0.7 nM
IC50 (human SST5 [5]): 3.4 nM
EC50 (human SST2 [6]): 0.59 nM
EC50 (human SST5 [7]): 3.3 nM
Molecule: C[C@@H](O)[C@@H]1NC(=O)[C@H](CCCCN)NC(=O)[C@@H](Cc2c[nH]c3ccccc23)NC(=O)[C@H](Cc2cccc3ccccc23)NC(=O)[C@@H](NC(=O)[C@@H](Cc2ccccc2)NC(=O)CN2CCN(CC(=O)O)CCN(CC(=O)O)CCN(CC(=O)O)CC2)CSSC[C@@H](C(=O)N[C@H](CO)[C@@H](C)O)NC1=O [^natGa-DOTA-NOC, metal not drawn, reference compound]

IC50 (human SST2 [4]): 0.32 nM
Factor of reduction of agonistic potency for SST2 vs ST8950 (human SST2 [6]; after ^natGa-DOTA conjugation): 1.6
EC50 (human SST2 [6]): 0.46 nM
Molecule: CC(C)[C@@H]1NC(=O)[C@H](CCCCN)NC(=O)[C@@H](Cc2c[nH]c3ccccc23)NC(=O)[C@H](Cc2ccc(O)c(I)c2)NC(=O)[C@@H](NC(=O)[C@@H](Cc2ccc(N)c(I)c2)NC(=O)CN2CCN(CC(=O)O)CCN(CC(=O)O)CCN(CC(=O)O)CC2)CSSC[C@@H](C(=O)N[C@H](C(N)=O)[C@@H](C)O)NC1=O [^natGa-DOTA-ST8950, metal not drawn]

IC50 (human SST2 [4]): 7.5 nM
EC50 (human SST2 [6]): 9.8 nM
Molecule: CC(C)[C@@H]1NC(=O)[C@H](CCCCN)NC(=O)[C@@H](Cc2c[nH]c3ccccc23)NC(=O)[C@H](Cc2ccc(O)cc2)NC(=O)[C@@H](NC(=O)[C@@H](Cc2ccc(N)cc2)NC(=O)CN2CCN(CC(=O)O)CCN(CC(=O)O)CCN(CC(=O)O)CC2)CSSC[C@@H](C(=O)N[C@H](C(N)=O)[C@@H](C)O)NC1=O [^natGa-DOTA-ST8951, metal not drawn]

EC50 (human SST5 [7]): 39 nM
Molecule: C[C@@H](O)[C@H](NC(=O)[C@@H]1CSSC[C@H](NC(=O)[C@@H](Cc2ccccc2)NC(=O)CN2CCN(CC(=O)O)CCN(CC(=O)O)CCN(CC(=O)O)CC2)C(=O)N[C@@H](Cc2ccc(O)cc2)C(=O)N[C@H](Cc2c[nH]c3ccccc23)C(=O)N[C@@H](CCCCN)C(=O)N[C@@H]([C@@H](C)O)C(=O)N1)C(=O)O [^natGa-DOTA-TATE, metal not drawn]
IC50 (SST5 [8]): > 1000 nM

Molecule: Pasireotide
IC50 (human SST2 [9]): 3.1 nM
IC50 (human SST5 [10]): 0.2 nM
EC50 (human SST2 [11]): 1.1 nM
EC50 (human SST5 [12]): 0.6 nM

Molecule: [^68Ga][Ga-1,4,7,10-tetraazacyclododecane-1,4,7,10-tetraacetic acid^0,Tyr^3]-octreotide [[^68Ga]Ga-DOTA-TOC]
IC50 (SST2): 2.5 ± 0.5 nM
IC50 (SST5 [13]): 73 ± 21 nM

Molecule: [^68Ga][Ga-DOTA^0,Tyr^3,Thr^8]-octreotate [[^68Ga]Ga-DOTA-TATE]
IC50 (SST2): 0.2 ± 0.04 nM
Blood values [14]: 0.4 ± 0.0 %IA/g
Liver uptake [14]: 0.4 ± 0.2 %IA/g
